Earlier results as cited in PMC10716173.

Target: stapled BID BH3 peptide BH3 (Homo sapiens) (UniProt P55957)
Sequence (P55957 80-101): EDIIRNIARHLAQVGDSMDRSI

BAK, sequence (Q16611 2-211): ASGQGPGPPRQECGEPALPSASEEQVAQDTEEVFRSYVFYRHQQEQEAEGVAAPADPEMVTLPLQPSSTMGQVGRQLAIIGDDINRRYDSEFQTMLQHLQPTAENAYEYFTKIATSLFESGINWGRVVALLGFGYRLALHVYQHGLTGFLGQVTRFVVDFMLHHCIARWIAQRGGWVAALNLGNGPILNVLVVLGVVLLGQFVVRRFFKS

Kd: 1000 nM
Substance: BAK (from UniProt Q16611)
